B1: nanobody clone A7 (VHH)
VHH: QVQLQESGGGLVQAGGSLRLSCAASGNIFYTYSMGWYRQAPGKEREFVAAISAGTITYYADSVKGRFTISRDNAKNTVYLQMNSLKPEDTAVYYCAVFAPRDVIHYYWGQGTQVTVSS
B2: nanobody clone C2 (VHH)
VHH: QVQLQESGGGLVQAGGSLRLSCAASGSISVVYGMGWYRQAPGKEREFVAGISYGGSTYYADSVKGRFTISRDNAKNTVYLQMNSLKPEDTAVYYCAVDASYWDTLVYWGQGTQVTVSS
B3: nanobody clone A9 (VHH)
VHH: QVQLQESGGGLVQAGGSLRLSCAASGTISQDSGMGWYRQAPGKEREFVAGITAGSITYYADSVKGRFTISRDNAKNTVYLQMNSLKPEDTAVYYCAASYVSVQAHTYWGQGTQVTVSS
B4: nanobody clone A8 (VHH)
VHH: QVQLQESGGGLVQAGGSLRLSCAASGTIFEERVMGWYRQAPGKEREFVAGIASGAITYYADSVKGRFTISRDNAKNTVYLQMNSLKPEDTAVYYCAAQGYSFKTKPDYSAYVLVYWGQGTQVTVSS
B5: nanobody clone B4 (VHH)
VHH: QVQLQESGGGLVQAGGSLRLSCAASGNISVWIPMGWYRQAPGKEREFVASIGEGSTTYYADSVKGRFTISRDNAKNTVYLQMNSLKPEDTAVYYCAVPYYGHSDYDYWGQGTQVTVSS
B6: nanobody clone C5 (VHH)
VHH: QVQLQESGGGLVQAGGSLRLSCAASGNISTGTAMGWYRQAPGKEREFVAGIAYGATTYYADSVKGRFTISRDNAKNTVYLQMNSLKPEDTAVYYCAVEVSQSTPGGRYSVAYLIYWGQGTQVTVSS
B7: nanobody clone C4 (VHH)
VHH: QVQLQESGGGLVQAGGSLRLSCAASGSISGDVEMGWYRQAPGKEREFVAGINDGGNTYYADSVKGRFTISRDNAKNTVYLQMNSLKPEDTAVYYCAVSTTYPSYNESQYADWLAYWGQGTQVTVSS
B8: nanobody clone B1 (VHH)
VHH: QVQLQESGGGLVQAGGSLRLSCAASGTIFYSSDMGWYRQAPGKEREFVAGINRGSTTYYADSVKGRFTISRDNAKNTVYLQMNSLKPEDTAVYYCAVVSDVLTRLFYWGQGTQVTVSS

target: T1, biotinylated murine DLL4 protein, truncation containing the C2, DSL, and EGF1-3 domains (DLL4 (N-EGF3)) (mouse, UniProt Q9JI71 27-324, limits assumed, biotinylated (site not stated)); experiment: yeast display, biotinylated mDLL4 + SA-647, flow cytometry
T1 construct: domain: C2, DSL, and EGF1-3 domains (N-EGF3); also called mDLL4; mouse DLL4
T1 sequence (Q9JI71 27-324 limits assumed): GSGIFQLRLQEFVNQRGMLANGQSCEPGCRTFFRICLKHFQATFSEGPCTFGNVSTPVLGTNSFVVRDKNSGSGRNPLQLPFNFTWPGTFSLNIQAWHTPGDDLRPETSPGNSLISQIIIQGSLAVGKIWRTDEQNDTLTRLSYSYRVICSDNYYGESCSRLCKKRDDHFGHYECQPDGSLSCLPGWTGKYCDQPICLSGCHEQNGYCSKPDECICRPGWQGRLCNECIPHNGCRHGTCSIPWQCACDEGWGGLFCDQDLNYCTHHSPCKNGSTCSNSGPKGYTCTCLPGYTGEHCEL
Description: (§1) 162. To isolate binding molecules that interrupted the interaction of DLL4 and Notch1, we performed several rounds of selection using decreasing concentrations of biotinylated murine DLL4 protein. The mDLL4 protein was a truncation that contained the C2, DSL, and EGF1-3 domains (DLL4 (N-EGF3)). To perform a selection, the library was stained with biotinylated mDLL4, washed, incubated with streptavidin-647, washed, and then binders isolated selected using either (a) magnetic beads coated with an anti-647 antibody or (b) FACS. The mDLL4-binding yeast were then plated so that individual colonies could be picked and cultured to isolate individual clones. The clones were then each stained with mDLL4 and SA-647 and analyzed by flow cytometry to confirm that they bound to mDLL4. (FIG. 1).

| binding result | Binder |
| --- | --- |
| binds | B1 |

target: T2, human DLL4 (N-EGF3) (human, UniProt Q9NR61 27-323, limits assumed, biotinylated (site not stated); used unlabeled in the complex with biotinylated hNotch1 (6-13)); experiment: yeast display, biotinylated human DLL4 (N-EGF3), SA-647, flow cytometry
T2 construct: domain: N-EGF3; also called hDLL4; hDLL4 (N-3)
T2 sequence (Q9NR61 27-323 limits assumed): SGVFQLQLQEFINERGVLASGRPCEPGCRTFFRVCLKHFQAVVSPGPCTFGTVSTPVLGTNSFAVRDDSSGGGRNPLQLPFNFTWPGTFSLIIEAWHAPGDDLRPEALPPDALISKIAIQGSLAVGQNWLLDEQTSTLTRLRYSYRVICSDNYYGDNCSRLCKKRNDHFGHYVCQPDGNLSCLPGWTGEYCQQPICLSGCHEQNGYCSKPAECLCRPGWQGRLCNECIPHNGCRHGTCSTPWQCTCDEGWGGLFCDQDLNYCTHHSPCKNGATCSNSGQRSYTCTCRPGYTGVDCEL
Description: (§2) The eight anti-DLL4 nanobody clones were then tested for cross-reactivity between human and mouse DLL4. Yeast cells expressing each nanobody were stained with biotinylated human DLL4 (N-EGF3), washed, stained with SA-647, and then analyzed by flow cytometry.

| binding result | Binder |
| --- | --- |
| no binding | B2 |
| no binding | B3 |
| no binding | B4 |
| no binding | B5 |

target: T2, human DLL4 (N-EGF3); experiment: yeast display, biotinylated human DLL4 (N-EGF3) + SA-647, flow cytometry
Description: as §2

| binding result | Binder |
| --- | --- |
| binds | B6 |
| binds | B7 |
| binds | B8 |
| binds | B1 |

target: T1, biotinylated murine DLL4 protein, …; experiment: yeast display, flow cytometry (FIG. 1)
Description: as §1

| binding result | Binder |
| --- | --- |
| binds | B6 |
| binds | B2 |
| binds | B7 |
| binds | B8 |
| binds | B3 |
| binds | B4 |
| binds | B5 |

target: T3, human DLL4 (N-terminus to EGF5) (human, UniProt Q9NR61 27-401, limits assumed, biotinylated in the flow cytometry titration (site not stated); not stated for the plate-coated protein); experiment: nanobody incubated with increasing concentrations of biotinylated human DLL4 (N-terminus to EGF5), streptavidin Alexa Fluor 647, flow cytometry
T3 construct: domain: N-terminus to EGF5 (C2, DSL, and EGF1-5 domains); also called recombinant human DLL4 protein containing the C2, DSL, and EGF1-5 domains
T3 sequence (Q9NR61 27-401 limits assumed): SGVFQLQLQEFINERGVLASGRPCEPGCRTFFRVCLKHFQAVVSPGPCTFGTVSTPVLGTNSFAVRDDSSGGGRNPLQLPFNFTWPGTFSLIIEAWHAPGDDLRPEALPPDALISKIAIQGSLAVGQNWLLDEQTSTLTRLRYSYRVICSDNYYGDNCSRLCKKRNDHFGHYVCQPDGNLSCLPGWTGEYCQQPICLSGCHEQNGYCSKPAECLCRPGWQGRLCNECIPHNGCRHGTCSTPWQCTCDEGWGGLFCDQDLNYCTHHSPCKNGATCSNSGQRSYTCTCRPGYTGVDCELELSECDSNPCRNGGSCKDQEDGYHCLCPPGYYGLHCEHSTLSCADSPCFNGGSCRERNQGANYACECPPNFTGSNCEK
Description: 166. To determine the ability of the C4 and C5 nanobodies to bind DLL4, C4 and C5 nanobodies were incubated with increasing concentrations of biotinylated human DLL4 (N-terminus to EGF5) and binding was detected using streptavidin labeled with Alexa Fluor 647. Fluorescence was then monitored by flow cytometry and EC50 values were calculated for each nanobody (FIG. 5).

| binding result | Binder |
| --- | --- |
| binds | B6 |
| binds | B7 |

Reference: patent US20250163146A1 (H LEE MOFFITT CANCER CENTER AND RESEARCH INSTITUTE, published 2025)
